The target of assay [1] is T1, SARS-CoV-2 spike receptor-binding domain (RBD) (SARS-CoV-2, UniProt P0DTC2 319-541).
Assay [2] addresses T1, SARS-CoV-2 spike receptor-binding …. Description: BLI.
In assay [3] the target is S1 domain of the SARS-CoV-2 spike protein (SARS-CoV-2, UniProt P0DTC2 14-681).
In assay [4] the target is T1, SARS-CoV-2 spike receptor-binding …. Description: BLI. The source holds these as a separate data set. (In general: In BLI a coated tip is dipped into the sample, and binding shifts an interference pattern.)

B1: nanobody NM1224 (VHH)
VHH: DVQLVESGGSLVQPGGSLRLSCETSRSSLDAYAIGWFRQAPGKEREGVASISSSSMRTEYADSVKGRFTISRDNAKNTAYLDMNSLKPEDTAVYYCAAAGEYGRAWPGLDWYEFEYEGPGSPVTVSS
Consider B1, for which, in assay [1], the concentration for half-maximal inhibition (IC50) – broadly, the concentration at which inhibition is half-maximal – came out at 36.6 nM. The koff (as a rule, the rate constant with which the complex falls apart) in assay [2] was determined as 0.00267 s⁻¹.

B2: nanobody NM1222 (VHH)
VHH: EVQLVESGGGLVRPGGSLRLSCVGSGFTFSGYAINWYRQAPGKALELVAGISNAGDLTHYEEAMKGRVAISRANDKNTVYLQMDDLKPEDTAVYRCHAPGVRVGTGERNDVWGQGAQVTVSS
For the molecule B2, the IC50 worked out at 5.8 nM in assay [1] and 27.3 nM in assay [3]. The molecule further showed a koff in assay [2] of 0.00294 s⁻¹. Further, binding in assay [4] was characterised by a dissociation constant (Kd) of 18 nM.

B3: nanobody NM1230 (VHH)
VHH: QVQLVESGGGLVRPGGSLRLSCVGSGFTFSGYAMNWYRQAPGKALELVAGISNAGDLTHYEEPMKGRVAISRANDKNTVYLQMDDLKPEDTAVYRCHAPGVRVGTGERKDVWGQGAQVTVSS
Regarding B3, in assay [3], the IC50 is 10.6 nM. This molecule also gave an off-rate (koff) in assay [2] of 0.00166 s⁻¹.

B4: nanobody NM1221 (VHH)
VHH: DVQLVESGGGLVQPGGSLTLSCVGSGFLFSGYAMNWYRQAPGKALELVAGISNAGDITHYEEAMKGRVAISRVNDKNTVYLQMDDLKPEDTAVYRCHAPGVRVASGERNDVWGQGTQVTVSS
On to B4, for which the IC50 in assay [1] was 10.1 nM; in assay [3] it was 43.3 nM. In assay [2], this molecule registered a koff of 0.00296 s⁻¹. Moreover, binding in assay [4] was characterised by a dissociation constant (Kd) of 22.7 nM.

B5: nanobody NM1223 (VHH)
VHH: EVQLVESGGGLVQPGGSLRLSCSASGFAFSSVSMSWVRLLPGKGTEWVAEIDRDGGNGNYEDSVKGRFTISRDNAKNTLFLQMNSLVPEDTALYYCRLGTRDHIMSGWGPGAPVTVSS
In assay [2], B5 gave a koff of 0.00027 s⁻¹.

B6: nanobody NM1229 (VHH)
VHH: EVQLQESGGGLVQPGESLRLSCAASGRTHDWYTMGWFRQAPGKEREFVARINWSSGMTYYADSVKGRFTISRDNPKNTVYLQMNSLTPDDTAVYYCNVHPFTSPDYWGQGTRVTVSS
For B6, the figures for the IC50 in assay [1] and in assay [3] were 37.8 nM and 56.1 nM, respectively. Moreover, the koff in assay [2] was found to be 0.00985 s⁻¹. The Kd (as a rule, a measure of binding affinity in units of concentration) in assay [4] is 53.2 nM.

B7: nanobody NM1226 (VHH)
VHH: QVQLVESGGGSVQPGGSLRLSCLGSGSLDYYAIGWFRQAPGKEREGVSCIASSGDRTIYADSVKGRFTISRDYGKNTVYLQMNSLKPEDTAMYYCAALQGSYYYTGFVANEYDYWGQGAPVTVSS
B7 came in with a 50% inhibitory concentration (IC50) in assay [3] of 1.44 nM. Besides, the koff in assay [2] worked out at 0.00115 s⁻¹.

B8: nanobody NM1228 (VHH)
VHH: DVQLVESGGGLVRPGGSLRLSCESSGRHFDIDTMGWYRQAPGKQRELVASITSEKSTVYADALKGRFTISRDIPDNNVYLQMNNLKPEDTAVYYCNAKMDPHSLDYALGNQVFWGQGSLVTVSS
In assay [3], B8 displayed a 50% inhibitory concentration (IC50) of 0.85 nM. Further, in assay [2], the dissociation rate constant (koff) is 0.00064 s⁻¹.

B9: nanobody NM1225 (VHH)
VHH: QVQLVESGGGLVQPGGSLRLSCAASGNILRVHDMGWYRQAPGKQREYVAMITHGGITNYIDSVKGRFTISRDNAKNTVYLQMNSLKPEDTAVYYCHAVLSSALNGVTETSSNWGQGTQVTVSS
For the molecule B9, in assay [2], the dissociation rate constant (koff) came to 0.473 s⁻¹. This molecule came in with a Kd in assay [4] of 53700 nM.

B10: nanobody NM1227 (VHH)
VHH: EVQLVESGGGLVQPGGSLTLSCETSGRHFDIDDMGWYRQAPGKQRELVACITTESSTTYADAVKGRFTISRDNPDNTVYLQMTNLKPEDTAVYYCNAEMHPRSLDYALGNRDYWGQGAPVTVSS
For B10, the IC50 came to 1.65 nM in assay [1] and 3.51 nM in assay [3]. In assay [2], the koff was 0.00079 s⁻¹. In assay [4], the equilibrium dissociation constant (Kd) turned out to be 3.72 nM.

For the origin of these results see publication PMC8097376 (2021).
